Among the data in publication PMC12912723 (2026) are Kd and IC50 values, retold here.

In experiment [1] the target is biotinylated PcrV (Pseudomonas aeruginosa, UniProt G3XD49 1-294, biotin). In words: BLI.
The target in experiment [2] is T1, PscF from strain PAO1 (Pseudomonas aeruginosa, UniProt P95434 1-85).
T1 chain: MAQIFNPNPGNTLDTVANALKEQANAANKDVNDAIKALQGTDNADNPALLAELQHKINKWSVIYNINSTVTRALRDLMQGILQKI
In words: ELISA; competition with biotinylated P5G10. (In general: An ELISA detects its analyte on a solid surface through an enzyme-linked reagent.)

B1: P5B3 (human monoclonal antibody, IgG1) (antibody, V domains shown)
VH: EVQLVESGGGIVQPGGSLRLSCAASGFTFSSYWMHWVRQAPGKGLVWVSRINSDGSIINYADSVKGRFTISRDNAKKTLHLQMNSLRAEDTAVYYCAKDGVYDALDIWGQGTMVTVSS
VL: SYELTQPPSVSVSPGQTARITCSADALPNQYTYWYQQKPGQAPVLIMYKDSERPSGIPERFSGSSSGTTVTLTISGVQAEDEADYYCQSTDSRGTYVVFGGGTKLTVL
A word on the Kd: it is the constant that tells how readily two partners part at equilibrium. Low readings indicate a tighter complex, high ones a looser complex. As for B1, the equilibrium dissociation constant (Kd) in experiment [1] was determined as 0.0239 nM.

B2: P5G10 (human anti-PscF monoclonal antibody) (antibody, V domains shown)
VH: VQLQQWGAGLLKPSETLSLTCAVYGGSFSDYYWTWIRQAPGKGLEWIGENRHRGTTNYNPSLKGRVTISVDTSKNQFTLKVTSVTAADTAVYFCARQRGSSGGAPSGLDVWGQGTTVTVSS
VL: QSVLTQPPSASGTPGQRVTISCSGASSNIGTNYVFWYQQFPGTAPKLLIYRNGHRPSGVPDRFSGSKSGASASLAISGLRSDDEADYYCATWDDSLSSQVFGGGTKLTVL
Usually IC50 stands for the concentration that inhibits the measured activity by half. Read a high IC50 as weaker potency in that assay. For the molecule B2, the IC50 in experiment [2] came to 0.46 µg/mL.
